B3: Snf5 (natural protein, S. cerevisiae (endogenous in yeast), UniProt P18480 1-905, looked up)
chain: MNNQPQGTNSVPNSIGNIFSNIGTPSFNMAQIPQQLYQSLTPQQLQMIQQRHQQLLRSRLQQQQQQQQQTSPPPQTHQSPPPPPQQSQPIANQSATSTPPPPPAPHNLHPQIGQVPLAPAPINLPPQIAQLPLATQQQVLNKLRQQAIAKNNPQVVNAITVAQQQVQRQIEQQKGQQTAQTQLEQQRQLLVQQQQQQQLRNQIQRQQQQQFRHHVQIQQQQQKQQQQQQQHQQQQQQQQQQQQQQQQQQQQQQQQQQQQQQQQQQQQQGQIPQSQQVPQVRSMSGQPPTNVQPTIGQLPQLPKLNLPKYQTIQYDPPETKLPYPTYWSDKKADTDTLLYEQIIQRDKINKYSLIRETNGYDPFSIYGFSNKEYISRLWHTLKYYQDLKNTRMKSITSTSQKIPSASIWGNGYSGYGNGITNTTTRVIPQVEVGNRKHYLEDKLKVYKQAMNETSEQLVPIRLEFDQDRDRFFLRDTLLWNKNDKLIKIEDFVDDMLRDYRFEDATREQHIDTICQSIQEQIQEFQGNPYIELNQDRLGGDDLRIRIKLDIVVGQNQLIDQFEWDISNSDNCPEEFAESMCQELELPGEFVTAIAHSIREQVHMYHKSLALLGYNFDGSAIEDDDIRSRMLPTITLDDVYRPAAESKIFTPNLLQISAAELERLDKDKDRDTRRKRRQGRSNRRGMLALSGTSASNTSMNGVHNTVAAGNASSLPPGEILLPDIADIPRTFRTPVPSTLMPGGVDVGPSVESYELRNTTTYKSRPDRPKPVSPPCYIIDHIPGHSLLLSIKLPGKVNTKEEFAAAPNDTSSGTNAMLPSPESLKTKLNSNIRAGVTIPSIPNPIANHTVTNSPNPTLQPVIPGGAASKSVPTPSLPIAPPVAPHDSEATLLTNSNNGSSNNNTQNT
B5: Swi1 (natural protein, S. cerevisiae (endogenous in yeast), UniProt P09547 1-1314, looked up)
chain: MDFFNLNNNNNNNNTTTTTTTTNNNNTNNNNTNNNNNPANNTNNNNSTGHSSNTNNNTNNNNTNTGASGVDDFQNFFDPKPFDQNLDSNNNNSNSNNNDNNNSNTVASSTNFTSPTAVVNNAAPANVTGGKAANFIQNQSPQFNSPYDSNNSNTNLNSLSPQAILAKNSIIDSSNLPLQAQQQLYGGNNNNNSTGIANDNVITPHFITNVQSISQNSSSSTPNTNSNSTPNANQQFLPFNNSASNNGNLTSNQLISNYAASNSMDRSSSASNEFVPNTSDNNNNSNNHNMRNNSNNKTSNNNNVTAVPAATPANTNNSTSNANTVFSERAAMFAALQQKQQQRFQALQQQQQQQQNQQQQNQQPQQQQQQQQNPKFLQSQRQQQQRSILQSLNPALQEKISTELNNKQYELFMKSLIENCKKRNMPLQSIPEIGNRKINLFYLYMLVQKFGGADQVTRTQQWSMVAQRLQISDYQQLESIYFRILLPYERHMISQEGIKETQAKRIFLQQFLQELLKKVQQQQQAAALANANNNINSASSAPTPAAPGASVPATAAPGTEAGIVPVSANTPKSLNSNININVNNNNIGQQQVKKPRKQRVKKKTKKELELERKEREDFQKRQQKLLEDQQRQQKLLLETKLRQQYEIELKKLPKVYKRSIVRNYKPLINRLKHYNGYDINYISKIGEKIDSNKPIFLFAPELGAINLHALSMSLQSKNLGEINTALNTLLVTSADSNLKISLVKYPELLDSLAILGMNLLSNLSQNVVPYHRNTSDYYYEDAGSNQYYVTQHDKMVDKIFEKVNNNATLTPNDSNDEKVTILVDSLTGNQLPTPTPTEMEPDLDTECFISMQSTSPAVKQWDLLPEPIRFLPNQFPLKIHRTPYLTSLKKIKDEIDDPFTKINTRGAEDPKVLINDQLSTISMILRNISFSDNNSRIMSRNFYLKRFISDLLWLVLIHPENFTCNRKILNFKKDLVIVLSNISHLLEIASSIDCLLILILVISFGQPKLNPMASSSSFGSESLTFNEFQLQWGKYQTFGVDILAKLFSLEKPNLNYFKSILLNKNTGNNLYDRNSNNNHKDKKLLRRLLNLYNDNNKNNNNRHNLLNDVVSFLFSAIPLQQVLSQSADPSLLIDQFSPVISQSLTSILVIVQKILPLSNEVFEISENNSDSNSNNNGNKDSSFNFNKNLPFVWLSSEENIGSGLLKLSEIILNINNSTSKNTLLQQQNYSKVLLPSINISCVQLIKCLVEKSICFENCLNNDPEILKKIASIPNLFPTDLEIFQLFTNPSVDIQIINQYQLLYNLKNDILTNLE

Key:
Test in all cases: cross-linking
[1] = biological target: B3
[2] = biological target: Snf2 with two FLAG tags at the C-terminus (S. cerevisiae (endogenous in yeast), UniProt P22082 1-1703)
[3] = biological target: B5

Snf2 with two FLAG tags at the C-terminus, sequence (P22082 whole entry): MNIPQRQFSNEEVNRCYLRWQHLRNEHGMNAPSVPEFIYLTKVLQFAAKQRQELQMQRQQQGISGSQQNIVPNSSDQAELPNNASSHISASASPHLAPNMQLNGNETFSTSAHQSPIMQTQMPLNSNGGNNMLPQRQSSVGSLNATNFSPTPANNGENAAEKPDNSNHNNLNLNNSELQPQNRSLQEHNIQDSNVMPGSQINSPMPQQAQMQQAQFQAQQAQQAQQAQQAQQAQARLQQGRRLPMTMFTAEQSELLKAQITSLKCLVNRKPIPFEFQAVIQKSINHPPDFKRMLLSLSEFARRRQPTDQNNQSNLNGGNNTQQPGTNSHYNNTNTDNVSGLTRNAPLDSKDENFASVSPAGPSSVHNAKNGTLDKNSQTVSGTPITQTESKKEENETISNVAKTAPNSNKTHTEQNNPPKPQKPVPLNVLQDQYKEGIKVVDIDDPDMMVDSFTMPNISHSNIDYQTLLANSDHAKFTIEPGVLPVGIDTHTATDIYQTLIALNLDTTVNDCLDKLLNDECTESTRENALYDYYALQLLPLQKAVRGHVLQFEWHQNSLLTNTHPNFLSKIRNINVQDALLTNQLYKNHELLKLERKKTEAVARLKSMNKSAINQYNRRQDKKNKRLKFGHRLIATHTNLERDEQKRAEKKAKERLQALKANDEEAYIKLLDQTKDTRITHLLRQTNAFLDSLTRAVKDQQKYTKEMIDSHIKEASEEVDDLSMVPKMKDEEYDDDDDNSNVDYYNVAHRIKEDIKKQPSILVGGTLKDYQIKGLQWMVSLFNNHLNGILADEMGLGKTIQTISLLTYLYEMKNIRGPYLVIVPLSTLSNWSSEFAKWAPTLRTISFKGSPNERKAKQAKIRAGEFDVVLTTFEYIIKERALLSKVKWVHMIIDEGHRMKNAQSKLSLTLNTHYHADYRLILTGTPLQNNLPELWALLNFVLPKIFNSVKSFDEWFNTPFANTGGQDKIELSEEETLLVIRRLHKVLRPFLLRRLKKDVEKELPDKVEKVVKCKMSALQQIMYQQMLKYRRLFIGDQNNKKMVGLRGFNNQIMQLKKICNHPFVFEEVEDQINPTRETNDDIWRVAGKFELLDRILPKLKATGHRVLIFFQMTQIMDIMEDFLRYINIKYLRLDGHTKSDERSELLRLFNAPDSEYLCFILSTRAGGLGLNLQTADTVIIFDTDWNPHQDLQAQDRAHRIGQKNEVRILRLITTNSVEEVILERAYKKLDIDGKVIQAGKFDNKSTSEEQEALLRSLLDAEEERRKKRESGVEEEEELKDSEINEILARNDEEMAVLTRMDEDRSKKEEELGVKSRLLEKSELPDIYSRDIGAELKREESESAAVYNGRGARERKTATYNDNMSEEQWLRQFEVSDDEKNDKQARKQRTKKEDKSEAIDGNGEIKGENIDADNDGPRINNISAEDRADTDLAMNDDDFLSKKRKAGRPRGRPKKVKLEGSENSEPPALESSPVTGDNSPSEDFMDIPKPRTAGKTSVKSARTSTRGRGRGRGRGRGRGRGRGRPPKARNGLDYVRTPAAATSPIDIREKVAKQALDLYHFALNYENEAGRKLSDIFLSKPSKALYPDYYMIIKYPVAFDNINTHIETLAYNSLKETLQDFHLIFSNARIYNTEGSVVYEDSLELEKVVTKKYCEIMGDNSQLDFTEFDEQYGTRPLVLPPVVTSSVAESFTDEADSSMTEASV

B1: Taf14 (natural protein, S. cerevisiae (endogenous in yeast), UniProt P35189 1-244, looked up)
chain: MVATVKRTIRIKTQQHILPEVPPVENFPVRQWSIEIVLLDDEGKEIPATIFDKVIYHLHPTFANPNRTFTDPPFRIEEQGWGGFPLDISVFLLEKAGERKIPHDLNFLQESYEVEHVIQIPLNKPLLTEELAKSGSTEETTANTGTIGKRRTTTNTTAEPKAKRAKTGSASTVKGSVDLEKLAFGLTKLNEDDLVGVVQMVTDNKTPEMNVTNNVEEGEFIIDLYSLPEGLLKSLWDYVKKNTE
B1: binds [1]; binds [2].

B2: Swi3 (natural protein, S. cerevisiae (endogenous in yeast), UniProt P32591 1-825, looked up)
chain: MENTLGEGSTVNASVDVDQHGNDNNSDSNANAAVAGVANTDTAGEESQQQDESLKDEATVPNTRDAESEAITVTAKQQPTMQANKLDSQETPSTEESRAQNVFGQDNEDSDNLFGETESSVSNNEANTPSIPTNPVDNENNKPAIKEDSTIQDSNGDVKNMEDVKIQKEEEPENNTVIEGVKEESQPDENTKEMDEVEEDDEDDDQPMISPDNSIFGDTKSESKQLGNTSSVANTPSEIPDAHKAEQEDIIEKTESVDKKVDSGEERNEQEREIMNDHSKSANPKKTTITRVEPETFEIPQAHEIVIPSYSKWFNLEKIHSIEVQSLPEFFTNRIPSKTPEVYMRYRNFMVNSYRLNPNEYFSVTTARRNVSGDAAALFRLHKFLTKWGLINYQVDSKLLPKNIEPPLTSQYSTRHDAPRGLFPFESYKPSVQLPDMAKLKKMMNTSDSESTLYKYLKESKRKYDEITHPPSTTDDENGDKNDNGGKMNNEVSTSTSMTGDANLLEEGETSRPLKKVKILEQIDENWSKEDLQKLLKGIQEFGADWYKVAKNVGNKSPEQCILRFLQLPIEDKFLYGDGNGKGDNDNGLGPLKYAPHLPFSKSENPVLSTIAFLVGLVNPKTVQSMTQRAIQSAESIKSQKEEISDQKPIEHIKEGSEIAISSLGYRSHIFATNEERQMNFLTNELIRLQMEKLDAKLNHLKKLEKFMELERKTLERQQENLLIQRLNFNQNSSKIVNVLSKCLNLISDSNINNSSVAEKEEIRSQIDHFKSMLSKPETLSIGKNPFNKPNIETGENHNGQSISNENDVKPISIEAPQFYRYWSA
B2: binds [1]; binds [2].

B3: binds [2]; binds [3].

B4: Snf6 (natural protein, S. cerevisiae (endogenous in yeast), UniProt P18888 1-332, looked up)
chain: MGVIKKKRSHHGKASRQQYYSGVQVGGVGSMGAINNNIPSLTSFAEENNYQYGYSGSSAGMNGRSLTYAQQQLNKQRQDFERVRLRPEQLSNIIHDESDTISFRSNLLKNFISSNDAFNMLSLTTVPCDRIEKSRLFSEKTIRYLMQKQHEMKTQAAELQEKPLTPLKYTKLIAAAEDGSRSTKDMIDAVFEQDSHLRYQPDGVVVHRDDPALVGKLRGDLREAPADYWTHAYRDVLAQYHEAKERIRQKEVTAGEAQDEASLQQQQQQDLQQQQQVVTTVASQSPHATATEKEPVPAVVDDPLENMFGDYSNEPFNTNFDDEFGDLDAVFF
B4: binds [1].

B5: binds [2].

B6: Swp82 (natural protein, S. cerevisiae (endogenous in yeast), UniProt P43554 1-623, looked up)
chain: MLGEDEGNTVLEKGNNPSVKQGEVGAVFIVPKILIREHERVILKQILQILDQDELVQPPLDKFPYKKLELPKYIDELKTRDATNTSYKMIQLDAYGEKKVGSNGELFGGRHYLFNTFTFTAHMGVLLVLLQDVIKVLYQSNATHDEDEFIVQHDQILVMETSEEQTKFLAKNGVIPEESKGSFKYITARSAFVEFGASVIAGGQRIVDDYWESLAKKQNLSSHQRVFKLSTNLISKISLLRPSFQNNRISNANEISANTNNTCTISTSKFESQYPIVTEQPSAEIREAYIENFAKGEHISAIVPGQSISGTLELSAQFRVPRYHSKNSFQQALQMKAMDIPIGRHEELLAQYESQAPDGSASISLPNHIPSVNPSNKPIKRMLSSILDINVSSSKNKKSEENEMIKPMNKGQHKNNTSLNINGWKFESLPLKSAENSGKQQYYRGLPLYEKNTLLERLKQLTPNEIKELEHLHDAVFVNTGLQNVRKVRTKKWKKYWQYKAGIPIGLKRSQLDEFKNKYLKDVLAQTSVTTNFNEITNTDETITTKRVPNPNFLGNCNIKDFKPPYIYSHVNKVPQNVAGDKTAVKLDTEVKNTNANPVVATDPVAAKPDNLANFSNEVAMNN
B6: binds [1]; binds [2].
